Reference: the supplement of paper PMC9170038

Tested on: MS2 coat protein
Assay: apparent KD of MS2 coat protein; designed switch direction (-1 OFF switch, 1 ON switch): 1; higher = weaker reporter binding
How it was run: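 The apparent KD reported per design is the median over clusters of curve fits to normalised cluster fluorescence. The RNA switches were transcribed on Illumina chips by stalled E. coli RNA polymerase. SNAP-549-labelled MS2 coat protein was titrated from 0.7 or 1.5 nM, doubling up to 3 µM, in Tris-HCl pH 7.5 buffer containing KCl, MgCl2, BSA, DTT, tRNA and Tween-20, with no input, 200 uM small-molecule ligand, or an oligonucleotide input.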

[1] = input ligand: microRNA oligo, concentration not stated
[2] = Eterna round: R95, input ligand: microRNA oligo, concentration not stated
[3] = Eterna round: R95, input ligand: FMN 200 uM
[4] = Eterna round: R95, input ligand: none

Row | Sequence | apparent KD of MS2 coat protein (input ligand: FMN 200 uM) [nM] | apparent KD of MS2 coat protein [1] [nM] | apparent KD of MS2 coat protein (input ligand: none) [nM] | apparent KD of MS2 coat protein [2] [nM] | apparent KD of MS2 coat protein [3] [nM] | apparent KD of MS2 coat protein [4] [nM]
1 | GCUCGGCUGAUGGCCCACAUGAGGAUCACCCAUGUGACUGGGCAGGAUAUCUAGAUUCAGGAUGUAGAGAAGGGCCUGCCGAGC [SameState NG3 #40] (Eterna round: R96, puzzle: Same State NG 3) | 331 | 77.3 | 188 |  |  | 
2 | GCGAGCGUACUUGCUACAUGAGGAUCACCCAUGUUUAUUGGACAGGAUAUGGUACCGUUUCGGUACCAGAAGGGUUCAUCAUGU [JL SSNG3 3.70] (Eterna round: R96, puzzle: Same State NG 3) | 294 | 471 | 547 |  |  | 
3 | AGCUAUUACGAAGGAUAUAGUAACAUGAGGAUCACCCAUGUUUACAUGAUUAAUUGUGAUCACGUCUAGAAGGUUGUACUAACA [SameState NG2 #34] (Eterna round: R96, puzzle: Same State NG 2) | 33.1 | 30.2 | 37.1 |  |  | 
4 | CAGUGCUGUUGAGAGGAUAUGCGGCGACGGACAUGAGGAUCACCCAUGUUAGCGACAGCGUUGCGGCAGAAGGCUCUGCCCGCUG [Soteed Omei mod 50] (puzzle: Same State 2) |  |  |  | 15.3 |  | 
5 | AUAAAACAUGAGGAUCACCCAUGUCAACAAAGUCGAGGAUAUGGGCAAAGAAAAGAAUAACCAGAAGGCGAAUAAU [salish99_ss1_r3_055] (puzzle: Same State 1) |  |  |  | 315 | 51.5 | 316
6 | GAUUCACAUGAGGAUCACCCAUGUCGUUUAAUGGGAGGAUAUACGUGGACCGUAGUCCGCGUAGAAGGCCUAAUUG [Mat - Same State 1 - Mod of JL - D24] (puzzle: Same State 1) |  |  |  | 74.4 |  | 
7 | AGGAGUAUCUGACAUGAGGAUCACCCAUGUUCCAUUCUACGAUAGGAUAUCGAAAUACAAAGACGCGAGAAGGAUCAGAACCUA [Eternabot solution 48] (Eterna round: R96, puzzle: Same State NG 3) | 23.2 | 16.5 | 26.8 |  |  | 
8 | GUGGAGGAUUAAGGAUAUUGAAUACAUAUGUUUAACAUGAGGAUCACCCAUGUGGGUUGCGGUAUCGAGAAGGUAAAUUACUGG [salish99_SSNG2_r04_034] (Eterna round: R96, puzzle: Same State NG 2) | 146 | 63.2 | 117 |  |  | 
9 | UUUGAAUUGCAAGGAUAUCUUAUUUAGAUUUUAAGAGAAGGUGCUUUAUAGUUACAUGAGGAUCACCCAUGUAUUUCUUUUUAU [JR_SSNG1_Sub062] (Eterna round: R96, puzzle: Same State NG 1) |  | 18.5 |  |  |  | 
10 | AGCGCGGUCUCGCAGGAUAUCCACAUUCCUACAUGAGGAUCACCCAUGUCGCUGCAGGAUAUUAGGGAGAAGGGUGAUGCCGCGG [Quesed] (puzzle: Same State 2) |  |  |  | 42.7 | 22.7 | 48.4
11 | GAAAGGCCUACAGGAUAUACCACAGUCUUGUCGGUAGAAGGGUGGGACAUGAGGAUCACCCAUGUACACUCCCAGAUGGGAGUG [Ergeesis] (Eterna round: R96, puzzle: Same State NG 1) | 767 | 135 | 476 |  |  | 
12 | UUUAGAUUCAGAGGAUAUUGAUGUUGUAUUUUACAAGAAGGCUGAUUGGUUUGAAUUGUUUUUUAACAUGAGGAUCACCCAUGU [JR_SSNG1_Sub011] (Eterna round: R96, puzzle: Same State NG 1) |  | 19.2 |  |  |  | 
13 | UUUCGAUAGAUAGGAUAUCACCUUACAUGAGGAUCACCCAUGUUGGCCGUGCUGGUUAUUCAUACUGAGAAGGAUCUUGAUGAC [JR_SSNG2_Sub004] (Eterna round: R96, puzzle: Same State NG 2) | 39.4 | 37 | 45 |  |  | 
14 | UGAAUAGUUACAGGAUAUGAUCCGAAAAUUGGGUCAGAAGGGUGGGUGUUGUGCGCUAUGUGCUACAUGAGGAUCACCCAUGUU [SameState NG1 #36] (Eterna round: R96, puzzle: Same State NG 1) | 341 | 22.5 | 41.2 |  |  | 
15 | AGUGGAGCCUGAGCUCCACAAAAGCAUGUACAUGAGGAUCACCCAUGUCAUGUACAAGCUUUUUGCUCGUCUUAAAA [Mat - hsa-mir-208a - Mod of JL - D18] (Eterna round: R96, puzzle: Sensor for hsa-mir-208a) | 552 | 14 | 502 |  |  | 
16 | UGUCCAGCCUGAGCUGGACAAAAGCAUGUACAUGAGGAUCACCCAUGUUCAUGUACAAGCUUUUUGCUCGUCUUAGA [salish99_208a_r3_064] (puzzle: Sensor for hsa-mir-208a) |  |  |  | 15.8 | 480 | 587
